Key:
Orc1 = target: T1, Orc1 (Saccharomyces cerevisiae, UniProt P54784 1-914); assay: cryo-EM structure; OCCM^Mcm2RA: 30 nM MH-ARS1-MH DNA, 60 nM ORC, 90 nM Cdc6, 60 nM MCM-Cdt1 (Mcm2 R676A), 3 mM ATP; 25 mM HEPES pH 7.6, 100 mM potassium chloride, 10 mM magnesium acetate, 1 mM DTT; 30 °C, 30 min; 3.3 Å consensus, 3.2 Å local refinements; settings: both partners purified
T1 construct: Orc1, S. cerevisiae; Subunit of m1, written alone for the contacts seen in the structures; also called Orc1 subunit of ORC; source: S. cerevisiae strain ySD-ORC, purified as a subunit of ORC
T1 sequence: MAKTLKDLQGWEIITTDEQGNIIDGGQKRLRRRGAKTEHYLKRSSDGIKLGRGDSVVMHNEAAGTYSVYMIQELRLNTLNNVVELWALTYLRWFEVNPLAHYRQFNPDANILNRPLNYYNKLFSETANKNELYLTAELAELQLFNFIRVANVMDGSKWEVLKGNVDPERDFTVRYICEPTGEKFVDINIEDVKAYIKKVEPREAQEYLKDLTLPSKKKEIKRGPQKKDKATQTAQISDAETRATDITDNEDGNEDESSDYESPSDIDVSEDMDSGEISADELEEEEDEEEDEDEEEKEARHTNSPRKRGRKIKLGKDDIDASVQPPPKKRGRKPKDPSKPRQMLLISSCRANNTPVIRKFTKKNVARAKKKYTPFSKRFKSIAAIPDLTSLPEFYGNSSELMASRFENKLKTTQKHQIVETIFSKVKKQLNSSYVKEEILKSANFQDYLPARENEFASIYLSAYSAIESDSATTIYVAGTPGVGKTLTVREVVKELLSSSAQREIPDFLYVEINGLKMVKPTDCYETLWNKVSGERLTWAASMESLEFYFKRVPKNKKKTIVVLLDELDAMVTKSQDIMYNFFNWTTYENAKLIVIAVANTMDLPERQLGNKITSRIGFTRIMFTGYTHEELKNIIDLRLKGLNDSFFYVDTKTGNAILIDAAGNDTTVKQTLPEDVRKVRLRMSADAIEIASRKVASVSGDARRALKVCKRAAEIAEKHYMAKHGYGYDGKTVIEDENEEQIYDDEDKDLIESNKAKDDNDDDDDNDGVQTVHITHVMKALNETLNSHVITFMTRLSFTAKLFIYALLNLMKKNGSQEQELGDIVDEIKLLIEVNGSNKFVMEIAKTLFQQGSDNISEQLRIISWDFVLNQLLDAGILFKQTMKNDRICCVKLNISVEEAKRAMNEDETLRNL

Mcm4 = target: T2, Mcm4 (Saccharomyces cerevisiae, UniProt P30665 1-933); assay: cryo-EM structure; OC1M^Mcm5RA: 30 nM MH-ARS1-MH DNA, 60 nM ORC, 90 nM Cdc6, 60 nM MCM-Cdt1 (Mcm5 R549A), 2 mM ATP; same buffer; 30 °C, 30 min; conformer 1 at 3.7 Å, conformer 2 at 3.4 Å (Orc1 ATPase domain seen only in conformer 1); settings: both partners purified
T2 construct: Mcm4, S. cerevisiae; Subunit of m4 and m7, written alone for the contacts seen in the structures; also called Mcm4 subunit of MCM; source: S. cerevisiae strains yGC216 and yGC226, purified as a subunit of MCM-Cdt1
T2 sequence: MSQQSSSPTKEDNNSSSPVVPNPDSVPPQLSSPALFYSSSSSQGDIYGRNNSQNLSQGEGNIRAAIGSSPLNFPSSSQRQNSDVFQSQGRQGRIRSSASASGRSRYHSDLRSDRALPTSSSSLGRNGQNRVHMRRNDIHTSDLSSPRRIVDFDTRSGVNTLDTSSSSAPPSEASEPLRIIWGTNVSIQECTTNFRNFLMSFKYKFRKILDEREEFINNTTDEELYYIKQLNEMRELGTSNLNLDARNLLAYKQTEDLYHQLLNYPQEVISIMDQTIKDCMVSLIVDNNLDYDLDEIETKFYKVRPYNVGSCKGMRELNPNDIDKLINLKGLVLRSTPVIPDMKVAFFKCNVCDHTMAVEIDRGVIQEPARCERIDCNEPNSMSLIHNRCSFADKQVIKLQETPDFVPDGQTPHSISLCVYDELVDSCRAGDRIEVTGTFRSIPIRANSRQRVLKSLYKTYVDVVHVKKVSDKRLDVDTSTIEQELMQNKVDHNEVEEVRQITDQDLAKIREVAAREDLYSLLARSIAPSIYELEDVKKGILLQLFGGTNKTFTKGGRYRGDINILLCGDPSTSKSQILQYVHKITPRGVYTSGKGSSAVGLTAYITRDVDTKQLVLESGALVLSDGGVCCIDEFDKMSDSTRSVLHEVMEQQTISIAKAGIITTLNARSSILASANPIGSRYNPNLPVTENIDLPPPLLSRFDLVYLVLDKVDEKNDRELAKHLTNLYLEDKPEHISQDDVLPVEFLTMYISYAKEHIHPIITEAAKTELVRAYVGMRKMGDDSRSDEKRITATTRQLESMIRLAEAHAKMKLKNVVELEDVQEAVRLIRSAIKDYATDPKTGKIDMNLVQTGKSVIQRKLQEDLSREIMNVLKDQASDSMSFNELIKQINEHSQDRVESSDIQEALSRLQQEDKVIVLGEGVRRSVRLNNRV

B1: Mcm7 (natural protein, Saccharomyces cerevisiae)
chain: MSAALPSIQLPVDYNNLFNEITDFLVTFKQDTLSSDATRNENEDENLDAENIEQHLLEKGPKYMAMLQKVANRELNSVIIDLDDILQYQNEKFLQGTQADDLVSAIQQNANHFTELFCRAIDNNMPLPTKEIDYKDDVLDVILNQRRLRNERMLSDRTNEIRSENLMDTTMDPPSSMNDALREVVEDETELFPPNLTRRYFLYFKPLSQNCARRYRKKAISSKPLSVRQIKGDFLGQLITVRGIITRVSDVKPAVEVIAYTCDQCGYEVFQEVNSRTFTPLSECTSEECSQNQTKGQLFMSTRASKFSAFQECKIQELSQQVPVGHIPRSLNIHVNGTLVRSLSPGDIVDVTGIFLPAPYTGFKALKAGLLTETYLEAQFVRQHKKKFASFSLTSDVEERVMELITSGDVYNRLAKSIAPEIYGNLDVKKALLLLLVGGVDKRVGDGMKIRGDINVCLMGDPGVAKSQLLKAICKISPRGVYTTGKGSSGVGLTAAVMKDPVTDEMILEGGALVLADNGICCIDEFDKMDESDRTAIHEVMEQQTISISKAGINTTLNARTSILAAANPLYGRYNPRLSPLDNINLPAALLSRFDILFLMLDIPSRDDDEKLAEHVTYVHMHNKQPDLDFTPVEPSKMREYIAYAKTKRPVMSEAVNDYVVQAYIRLRQDSKREMDSKFSFGQATPRTLLGIIRLSQALAKLRLADMVDIDDVEEALRLVRVSKESLYQETNKSKEDESPTTKIFTIIKKMLQETGKNTLSYENIVKTVRLRGFTMLQLSNCIQEYSYLNVWHLINEGNTLKFVDDGTMDTDQEDSLVSTPKLAPQTTASANVSAQDSDIDLQDA
notes: Mcm7, S. cerevisiae; Subunit of m4 and m7, written alone for the contacts seen in the structures; also called Mcm7 subunit of MCM; source: S. cerevisiae strains yGC216 and yGC226, purified as a subunit of MCM-Cdt1
binding result (Orc1): binds
binding result (Mcm4): binds

— publication PMC11748629, “Unidirectional MCM translocation away from ORC drives origin licensing” (Nature Communications, 2025)
